Results on five sequences are retold here after article PMC6309453.

The target of series [1] is T1, GST-NST2 (Arabidopsis thaliana) (UniProt Q9M274).
T1 sequence: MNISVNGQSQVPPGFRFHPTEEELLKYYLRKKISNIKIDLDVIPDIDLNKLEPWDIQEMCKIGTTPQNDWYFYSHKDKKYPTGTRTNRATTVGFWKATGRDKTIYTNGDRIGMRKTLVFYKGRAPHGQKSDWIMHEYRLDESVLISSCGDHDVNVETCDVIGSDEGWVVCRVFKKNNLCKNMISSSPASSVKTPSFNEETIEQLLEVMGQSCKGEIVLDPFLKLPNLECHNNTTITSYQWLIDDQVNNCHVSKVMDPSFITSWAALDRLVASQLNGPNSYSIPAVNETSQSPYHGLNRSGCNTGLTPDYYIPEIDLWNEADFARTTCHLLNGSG
In words: EMSA. The conditions noted are these: 10 mM Tris pH 7.5, 50 mM KCl, 1 mM DTT, 2.5% glycerol, 5 mM MgCl2, 0.1% IGEPAL CA-630, 0.05 ug/ul calf thymus DNA, 150 ng protein, 30 min room temperature. In general terms: Mobility shift assays separate free from complexed probe on a gel.

Series [2] has as its target T2, GST-SND1 (NST3) (Arabidopsis thaliana) (UniProt Q9LPI7).
T2 sequence: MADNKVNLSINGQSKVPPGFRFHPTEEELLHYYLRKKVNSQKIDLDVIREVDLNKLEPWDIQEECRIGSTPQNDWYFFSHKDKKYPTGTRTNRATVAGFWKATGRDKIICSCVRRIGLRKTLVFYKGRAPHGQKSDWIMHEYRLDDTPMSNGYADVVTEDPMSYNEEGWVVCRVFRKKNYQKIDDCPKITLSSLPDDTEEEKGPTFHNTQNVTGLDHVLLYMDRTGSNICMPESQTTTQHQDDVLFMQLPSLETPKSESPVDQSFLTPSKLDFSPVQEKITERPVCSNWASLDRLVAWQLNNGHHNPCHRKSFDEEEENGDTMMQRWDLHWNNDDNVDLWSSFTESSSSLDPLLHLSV
In words: EMSA. The conditions noted are these: 10 mM Tris pH 7.5, 50 mM KCl, 1 mM DTT, 2.5% glycerol, 5 mM MgCl2, 0.1% IGEPAL CA-630, 0.05 ug/ul calf thymus DNA, 150 ng protein, 30 min room temperature.

On to “GAAAGCTACTCTAAGTTATACAAATTCTAAAGAACTCAAAAGAATAACAAACAGTAGAAGTTGGAAGCTCAAGCAATTAAATTA (double strand) [CESA4Sha-D]”, for which the binding result in series [1] and in series [2] was “no binding” each time.

As to “CCAGATTTGGTAAAGTTTATAAGATACAAAATATTAAGTAAGACTAAAGTAGAAATACATAATAACTTGAAAGCTACTCTAAGTTATACAAATTCTAAAGAACTCAAAAGAATAAC (double strand) [CESA4Bay-C]”, the binding entry in series [1] and in series [2] was “binds” each time.

With “GTTGGAAGCTCAAGCAATTAAATTATATAAAAACACTAACTACACTGAGCTGTCTCCTTCTTCCACCAAATCTTGTTGCTGTCTCTTGAAGCTTTCTTATGACAC (double strand) [CESA4Bay-E]”, the binding entry in series [1] and in series [2] was “binds” throughout.

As for “GTTGGAAGCTCAAGCAATTAAATTATATAAAAACACTAACTACACTGAGCTGTCTCCTTCTTCCACCAAATCTTGTTGCTGTCTCTTGAAGCTTTCTTATGACAC (double strand) [CESA4Sha-E]”, the binding result in series [1] and in series [2] was “binds” each time.

With “GAAAGCTACTCTAAGTTATACAAATTCTAAAGAACTCAAAAGAATAACAAACAGTAGAAGTTGGAAGCTCAAGCAATTAAATTA (double strand) [CESA4Bay-D]”, the binding entry in series [1] and in series [2] was “no binding” in each case.
